Test results from PMC9482650, “Quantitative fragmentomics allow affinity mapping of interactomes” (Nature Communications, 2022).

T1: NHERF3_1, Q5T2W1
T1 sequence (Q5T2W1 4-100, limits assumed, looked up): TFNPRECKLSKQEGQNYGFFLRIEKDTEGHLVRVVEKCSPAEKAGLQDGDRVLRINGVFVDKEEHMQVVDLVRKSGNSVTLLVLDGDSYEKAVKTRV

T2: PCLO, Q9Y6V0
T2 sequence (Q9Y6V0 4491-4600, limits assumed, looked up): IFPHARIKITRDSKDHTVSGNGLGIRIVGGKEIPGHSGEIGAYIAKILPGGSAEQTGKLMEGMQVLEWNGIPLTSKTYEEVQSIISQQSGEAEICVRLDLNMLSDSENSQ

T3: CARD11, Q9BXL7
T3 sequence (Q9BXL7 662-765, limits assumed, looked up): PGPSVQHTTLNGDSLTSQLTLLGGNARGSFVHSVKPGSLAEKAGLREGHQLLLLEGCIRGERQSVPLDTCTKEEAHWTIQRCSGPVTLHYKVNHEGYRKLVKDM

T4: LIN7B, Q9HAP6
T4 sequence (Q9HAP6 88-185, limits assumed, looked up): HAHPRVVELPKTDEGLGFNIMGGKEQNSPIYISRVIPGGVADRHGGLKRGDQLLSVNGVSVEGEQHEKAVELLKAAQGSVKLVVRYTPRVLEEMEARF

T5: LRRC7, Q96NW7
T5 sequence (Q96NW7 1440-1537, limits assumed, looked up): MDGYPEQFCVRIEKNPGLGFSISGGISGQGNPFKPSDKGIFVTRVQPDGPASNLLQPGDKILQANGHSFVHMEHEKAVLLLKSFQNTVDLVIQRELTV

T6: NHERF3_3, Q5T2W1
T6 sequence (Q5T2W1 238-333, limits assumed, looked up): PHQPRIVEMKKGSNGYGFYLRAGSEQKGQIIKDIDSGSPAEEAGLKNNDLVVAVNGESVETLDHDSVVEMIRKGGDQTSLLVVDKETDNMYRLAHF

T7: HTRA3, P83110
T7 sequence (P83110 354-453, limits assumed, looked up): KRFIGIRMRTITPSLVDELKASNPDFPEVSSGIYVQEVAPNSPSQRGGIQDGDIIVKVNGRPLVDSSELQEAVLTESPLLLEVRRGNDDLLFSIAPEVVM

T8: SNTG1, Q9NSN8
T8 sequence (Q9NSN8 52-150, limits assumed, looked up): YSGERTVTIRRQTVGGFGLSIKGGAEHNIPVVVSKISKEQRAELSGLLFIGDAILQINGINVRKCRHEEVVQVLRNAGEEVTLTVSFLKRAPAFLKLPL

T9: LNX2_2, Q8N448
T9 sequence (Q8N448 334-432, limits assumed, looked up): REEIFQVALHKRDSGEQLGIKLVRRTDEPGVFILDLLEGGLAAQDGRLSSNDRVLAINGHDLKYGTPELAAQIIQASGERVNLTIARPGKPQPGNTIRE


Columns and labels:
Test in all cases: holdup assay
Set-up in all cases: key: below the threshold = too weak to quantify, mostly under pKd 3.1 to 4
Details in all cases: plain residues with an end cap or a label only (N-terminal biotin on a linker: ado-ado)
[1] = target: Inadl_5, Q8NI35
[2] = target: GRIP2_7, Q9C0E4
[3] = target: NHERF4_2, Q86UT5
[4] = target: T1, NHERF3_1, Q5T2W1
[5] = target: T2, PCLO, Q9Y6V0
[6] = target: LAP2, Q96RT1
[7] = target: T3, CARD11, Q9BXL7
[8] = target: GRID2IP_2, A4D2P6
[9] = target: LDB3, O75112
[10] = target: DLG4_3, P78352
[11] = target: TJP2_1, Q9UDY2
[12] = target: T4, LIN7B, Q9HAP6
[13] = target: PICK1, Q9NRD5
[14] = target: SCRIB_2, Q14160
[15] = target: GRIP2_5, Q9C0E4
[16] = target: GOPC, Q9HD26
[17] = target: DLG5_1, Q8TDM6
[18] = target: MAGI2_4, Q86UL8
[19] = target: SNX27, Q96L92
[20] = target: T5, LRRC7, Q96NW7
[21] = target: T6, NHERF3_3, Q5T2W1
[22] = target: Inadl_10, Q8NI35
[23] = target: NHERF4_1, Q86UT5-2
[24] = target: T7, HTRA3, P83110
[25] = target: SCRIB_3, Q14160
[26] = target: IL16_3, Q14005
[27] = target: T8, SNTG1, Q9NSN8
[28] = target: T9, LNX2_2, Q8N448

Chain of GRIP2_5, Q9C0E4 (Q9C0E4 544-642): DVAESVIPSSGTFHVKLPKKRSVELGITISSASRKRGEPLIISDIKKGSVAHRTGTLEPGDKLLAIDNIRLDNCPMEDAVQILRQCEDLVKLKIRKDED
Chain of LDB3, O75112 (O75112 1-94): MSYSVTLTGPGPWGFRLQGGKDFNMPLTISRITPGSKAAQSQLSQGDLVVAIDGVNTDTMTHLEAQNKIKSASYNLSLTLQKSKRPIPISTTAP
Chain of DLG5_1, Q8TDM6 (Q8TDM6 617-713): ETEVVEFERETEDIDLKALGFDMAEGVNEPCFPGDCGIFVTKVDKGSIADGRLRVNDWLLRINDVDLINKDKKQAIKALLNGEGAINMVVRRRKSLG
Chain of GRIP2_7, Q9C0E4 (Q9C0E4 934-1023): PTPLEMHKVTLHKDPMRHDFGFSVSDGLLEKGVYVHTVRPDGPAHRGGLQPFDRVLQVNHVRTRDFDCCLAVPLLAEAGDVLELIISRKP
Chain of SCRIB_3, Q14160 (Q14160 999-1103): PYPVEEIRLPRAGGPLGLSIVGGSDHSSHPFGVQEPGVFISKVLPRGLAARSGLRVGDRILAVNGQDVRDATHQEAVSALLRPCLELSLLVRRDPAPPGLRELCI
Chain of TJP2_1, Q9UDY2 (Q9UDY2 24-128): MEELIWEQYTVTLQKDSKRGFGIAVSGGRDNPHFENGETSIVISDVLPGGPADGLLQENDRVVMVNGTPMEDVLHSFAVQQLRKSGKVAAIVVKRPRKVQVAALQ
Chain of NHERF4_2, Q86UT5 (Q86UT5 220-308): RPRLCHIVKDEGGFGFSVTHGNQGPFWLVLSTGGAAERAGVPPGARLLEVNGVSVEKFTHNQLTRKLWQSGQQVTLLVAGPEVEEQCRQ
Chain of Inadl_10, Q8NI35 (Q8NI35 1673-1763): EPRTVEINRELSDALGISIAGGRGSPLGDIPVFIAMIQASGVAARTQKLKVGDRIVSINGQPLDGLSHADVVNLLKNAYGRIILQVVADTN
Chain of MAGI2_4, Q86UL8 (Q86UL8 772-865): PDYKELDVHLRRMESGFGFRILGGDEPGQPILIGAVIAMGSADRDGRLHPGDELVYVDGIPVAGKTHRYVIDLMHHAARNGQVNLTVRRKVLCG
Chain of IL16_3, Q14005 (Q14005 1107-1207): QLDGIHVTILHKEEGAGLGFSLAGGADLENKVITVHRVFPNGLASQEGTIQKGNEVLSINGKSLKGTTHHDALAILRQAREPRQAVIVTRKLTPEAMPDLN
Chain of PICK1, Q9NRD5 (Q9NRD5 17-115): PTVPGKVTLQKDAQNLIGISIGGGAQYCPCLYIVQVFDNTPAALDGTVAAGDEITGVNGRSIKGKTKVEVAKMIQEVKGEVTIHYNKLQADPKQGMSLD
Chain of NHERF4_1, Q86UT5-2 (Q86UT5 other isoform, or with tags, fused parts or gaps): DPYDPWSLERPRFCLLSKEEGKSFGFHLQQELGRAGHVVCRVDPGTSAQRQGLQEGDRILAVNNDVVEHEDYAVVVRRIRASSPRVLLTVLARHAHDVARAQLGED
Chain of SCRIB_2, Q14160 (Q14160 857-960): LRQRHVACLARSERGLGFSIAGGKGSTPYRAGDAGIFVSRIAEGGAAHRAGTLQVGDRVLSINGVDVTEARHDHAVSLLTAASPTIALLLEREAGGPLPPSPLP
Chain of DLG4_3, P78352 (P78352 306-403): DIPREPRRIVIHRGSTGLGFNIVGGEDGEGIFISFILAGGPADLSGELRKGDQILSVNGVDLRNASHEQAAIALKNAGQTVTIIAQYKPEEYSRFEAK
Chain of Inadl_5, Q8NI35 (Q8NI35 673-780): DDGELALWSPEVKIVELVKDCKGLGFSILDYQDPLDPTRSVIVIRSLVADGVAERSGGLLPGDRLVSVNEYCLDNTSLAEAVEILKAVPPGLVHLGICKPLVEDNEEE
Chain of LAP2, Q96RT1 (Q96RT1 other isoform, or with tags, fused parts or gaps): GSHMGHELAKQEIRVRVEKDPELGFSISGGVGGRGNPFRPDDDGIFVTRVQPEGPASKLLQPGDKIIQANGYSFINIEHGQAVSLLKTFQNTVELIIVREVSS
Chain of GRID2IP_2, A4D2P6 (A4D2P6 272-370): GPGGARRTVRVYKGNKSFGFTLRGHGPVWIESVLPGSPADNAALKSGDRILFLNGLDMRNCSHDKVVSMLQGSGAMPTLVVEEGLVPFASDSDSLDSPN

| Binder | pKd [1] | pKd [2] | pKd [3] | pKd [4] | pKd [5] | pKd [6] | pKd [7] | pKd [8] | pKd [9] | pKd [10] | pKd [11] | pKd [12] | pKd [13] | pKd [14] | pKd [15] | pKd [16] | pKd [17] | pKd [18] | pKd [19] | pKd [20] | further results |
| --- | --- | --- | --- | --- | --- | --- | --- | --- | --- | --- | --- | --- | --- | --- | --- | --- | --- | --- | --- | --- | --- |
| NNNVVKVDSV [MTNR1A, P48039] | below the threshold | below the threshold | below the threshold | below the threshold | below the threshold | below the threshold | below the threshold | below the threshold | below the threshold | below the threshold | below the threshold | 3.7 | 4.06 | below the threshold | below the threshold | below the threshold | below the threshold | below the threshold | below the threshold | below the threshold | pKd [21]: below the threshold; pKd [22]: below the threshold; pKd [23]: 3.51; pKd [24]: below the threshold; pKd [25]: below the threshold; pKd [26]: below the threshold; pKd [27]: below the threshold; pKd [28]: below the threshold |
| PSHPRLQTHV [KIRREL2, Q6UWL6] | below the threshold | below the threshold | below the threshold | 4.57 | below the threshold | below the threshold | below the threshold | 4.08 | below the threshold | 3.86 | 4.58 | below the threshold | below the threshold | 3.76 | below the threshold | below the threshold | below the threshold | 3.62 | below the threshold | below the threshold | pKd [21]: below the threshold; pKd [22]: below the threshold; pKd [23]: 3.62; pKd [24]: below the threshold; pKd [25]: 4.26; pKd [26]: below the threshold; pKd [27]: below the threshold; pKd [28]: 3.5 |
| NVYGIESVKI [GRIA2, P42262] | below the threshold | below the threshold | below the threshold | below the threshold | below the threshold | 3.56 | below the threshold | below the threshold | below the threshold | below the threshold | 3.56 | 3.74 | below the threshold | 3.49 | below the threshold | below the threshold | 3.59 | below the threshold | below the threshold | 3.49 | pKd [21]: below the threshold; pKd [22]: below the threshold; pKd [23]: 3.78; pKd [24]: 3.64; pKd [25]: 3.56; pKd [26]: below the threshold; pKd [27]: 3.65; pKd [28]: 3.85 |

Continued, in another order:

| pKd [1] | pKd [2] | pKd [3] | pKd [4] | pKd [5] | pKd [6] | pKd [7] | pKd [8] | pKd [9] | pKd [10] | pKd [11] | pKd [12] | pKd [13] | pKd [14] | pKd [15] | pKd [16] | pKd [17] | pKd [18] | pKd [19] | pKd [20] | Binder | further results |
| --- | --- | --- | --- | --- | --- | --- | --- | --- | --- | --- | --- | --- | --- | --- | --- | --- | --- | --- | --- | --- | --- |
| 3.52 | below the threshold | 3.55 | 5.64 | below the threshold | below the threshold | below the threshold | 4.74 | below the threshold | 3.87 | 3.89 | below the threshold | below the threshold | 3.49 | 3.8 | 4.5 | below the threshold | 3.8 | 4.93 | below the threshold | GIKKITSTAL [RPS6KA3, P51812] | pKd [21]: below the threshold; pKd [22]: 3.66; pKd [23]: 4.76; pKd [24]: below the threshold; pKd [25]: 5.06; pKd [26]: below the threshold; pKd [27]: 3.68; pKd [28]: below the threshold |
| below the threshold | below the threshold | below the threshold | 3.49 | below the threshold | below the threshold | below the threshold | below the threshold | below the threshold | below the threshold | below the threshold | 3.62 | below the threshold | 3.69 | below the threshold | below the threshold | below the threshold | below the threshold | 4.74 | below the threshold | SVTSERETNI [SLC16A7, O60669] | pKd [21]: below the threshold; pKd [22]: below the threshold; pKd [23]: below the threshold; pKd [24]: below the threshold; pKd [25]: 4.93; pKd [26]: below the threshold; pKd [27]: 4.61; pKd [28]: below the threshold |
